Source: US20240262893A1 (APPLIED BIOMEDICAL SCIENCE INSTITUTE, published 2024)
Read-outs that look alike come from different tables or passages of the source.

Assays:
[1] = biological target: T1, SARS CoV-2 spike trimer protein from the parental Wuhan-Hu-1 isolate (extracellular domain, furin-cl (SARS-CoV-2 (Wuhan-Hu-1)))
[2] = biological target: T2, parental receptor binding domain (RBD) protein (amino acids 319 to 541 of the spike protein) with c-terminal … (SARS-CoV-2 (Wuhan-Hu-1), UniProt P0DTC2 319-541)
[3] = biological target: T1, SARS CoV-2 spike trimer protein from …; remark: listed apart in the source
[4] = biological target: recombinant stabilized spike protein derived from the beta strain (formerly described as the South A (SARS-CoV-2 (B.1.351), UniProt P0DTC2 14-1208))
[5] = biological target: T3, SARS-CoV-2 (Wuhan-Hu-1) wild-type (WT) spike protein carried on pseudotyped virus or on live wild-type virus (SARS-CoV-2 (Wuhan-Hu-1), UniProt P0DTC2 14-1273); test: cell-based or functional assay
[6] = biological target: T3, SARS-CoV-2 (Wuhan-Hu-1) wild-type (WT) …; test: cell-based or functional assay; remark: listed apart in the source
[7] = biological target: T2, parental receptor binding domain (RBD) …; test: ELISA, RBD coated, IgG detected with anti-human Fc-HRP
[8] = biological target: SARS-CoV-2 spike protein variant 484K on pseudotyped virus (SARS-CoV-2, UniProt P0DTC2 14-1273); test: cell-based or functional assay
[9] = biological target: T4, SARS-CoV-2 B.1.351 ('SA', beta) variant spike protein on pseudotyped virus or live virus (SARS-CoV-2 (B.1.351), UniProt P0DTC2 14-1273); test: cell-based or functional assay
[10] = biological target: T4, SARS-CoV-2 B.1.351 ('SA', beta) variant …; test: cell-based or functional assay; remark: listed apart in the source
[11] = biological target: T1, SARS CoV-2 spike trimer protein from …; test: ELISA, spike protein coated, IgG detected with anti-human Fc-HRP
[12] = biological target: S protein of a SARS-CoV-2 delta lineage virus on pseudotyped virus (SARS-CoV-2 (delta lineage)); test: cell-based or functional assay

B1: R2G3 ultralong CDR3 chimeric bovine-human IgG1 antibody (antibody)
VH: QVQLRESGPSLVKPSQTLSLTCAASGFSLSDKAVGWVRRAPGKALEWLGSIDTGGSTGYNPGLKSRLSITKDNSKSQVSLSISSVTSEDSATYYCATVHQKTAEGDKTCPDGYEHTCGCIGGCGCKRSACIGALCCQASLGGWLSDGETYTYEFHVDTWGQGLVVTVSS
VL: QAVLNQPSSVSGSLGQRVSITCSGSSSNVGNGYVSWYQLIPGSAPRTLIYGDTSRASGVPDRFSGSRSGNTATLTISSLQAEDEADYFCASAEDSSSNAVFGSGTTLTVL
EC50 (read off the curve) [1]: ~0.01 nM | EC50 (read off the curve) [2]: ~0.02 nM | EC50 (read off the curve) [3]: ~0.4 nM | EC50 (read off the curve) [4]: ~0.2 nM | pseudovirus neutralization IC50 (luciferase assay) [5]: > 1 ng/mL | live SARS CoV-2 neutralization, ng/mL (quantity not given) [6]: 0.5 ng/mL | pseudovirus neutralization, ng/mL (quantity not given) [6]: 0.2 ng/mL | EC50 [7]: 0.056 nM

B2: SKD ultralong CDR3 chimeric bovine-human IgG1 antibody (antibody)
VH: QVQLRESGPSLVKPSQTLSLTCTASGFSLSDKAVGWVRQAPGKALEWLGSIDTGGNTGYNPGLKSRLSITKDNSKSQVSLSVSSVTTEDSATYYCTTVHQRTSEKRSCPGGSSRRYPSGASCDVSGGACACYVSNCRGVLCPTLNEIVAYTYEWHVDAWGQGLLVTVSS
VL: QAVLNQPSSVSGSLGQRVSITCSGSSSNVGNGYVSWYQLIPGSAPRTLIYGDTSRASGVPDRFSGSRSGNTATLTISSLQAEDEADYFCASAEDSSSNAVFGSGTTLTVL
pseudovirus luciferase assay EC50 [8]: > 1 nM | pseudovirus luciferase assay EC50 [9]: > 1 nM | pseudovirus neutralization, ng/mL (quantity not given) [10]: > 1000 ng/mL

B3: RBD F4 chimeric bovine-human IgG1 antibody (antibody, V domains shown)
VH: QVQLRESGPSLVKPSQTLSLTCTVSGFSLSSNGVVWVRQAPGKALEWLGDICSTGGTSFNPALKSRLSIAKDNSKSQVSLSVRSVTPEDTATYYCARSRGYDCYANVDALDYVDAWGQGLLVTVSS
VL: QAVLNQPSSVSGSLGQRVSITCSGSSSNVGNGYVSWYQLIPGSAPRTLIYGDTSRASGVPDRFSGSRSGNTATLTISSLQAEDEADYFCASAEDSSSNAVFGSGTTLTVL
EC50 [7]: 0.03 nM | EC50 [11]: 0.03 nM

B4: R2B1 chimeric bovine-human IgG1 antibody (antibody, V domains shown)
VH: QVQLRESGPSLVKPSQTLSLTCTVSGFSLSDNNVGWVRQAPGKALEWLGVMHNDGNKGYNPALKSRLSITKDSSKSQVSLSLSSVTSEDTATYYCTRDNARCDSWTYDSCDTWYRNSWHVDAWGQGLLVTVSS
VL: QAVLNQPSSVSGSLGQRVSITCSGSSSNVGNGYVSWYQLIPGSAPRTLIYGDTSRASGVPDRFSGSRSGNTATLTISSLQAEDEADYFCASAEDSSSNAVFGSGTTLTVL
EC50 [7]: 0.52 nM | EC50 [11]: 0.37 nM

B5: R2C3 (R5C1) ultralong CDR3 chimeric bovine-human IgG1 antibody (antibody)
VH: QVQLRESGPSLVKPSQTLSLTCTASGFSLSDKPVGWVRQAPGKPLEWLGSIDTAENTGYNPGLKSRLSITKDNSKSQVSLSLSSVTTEDSATYYCATVHQKTRKEKSCPDGYLYSSNTGRGYDCGVWTCRRVGGEFCSATGDWTSPSEEDFYEFYVDTWGQGAPVTVSS
VL: QAVLNQPSSVSGSLGQRVSITCSGSSSNVGNGYVSWYQLIPGSAPRTLIYGDTSRASGVPDRFSGSRSGNTATLTISSLQAEDEADYFCASAEDSSSNAVFGSGTTLTVL
EC50 (read off the curve) [3]: ~0.3 nM | EC50 (read off the curve) [4]: ~0.3 nM | EC50 [11]: 0.39 nM

B6: R2D9 ultralong CDR3 chimeric bovine-human IgG1 antibody (antibody)
VH: QVQLRESGPSLVKPSQTLSLTCTASGFSLSDKAIGWVRQAPGKALEWLGSIDTRGNTGYNPGLKSRLSITKDSSKSQVSLSVNSVTTEDSATYLCAIVQQITHKTCPNGYNWFDRCCSWDGTCGDGCCSNRAWPSGNGRADSSIGETYGYEFHVAAWGQGLLVTVSS
VL: QAVLNQPSSVSGSLGQRVSITCSGSSSNVGNGYVSWYQLIPGSAPRTLIYGDTSRASGVPDRFSGSRSGNTATLTISSLQAEDEADYFCASAEDSSSNAVFGSGTTLTVL
pseudovirus neutralization, ng/mL (quantity not given) [10]: 0.33 ng/mL | pseudovirus neutralization, ng/mL (quantity not given) [12]: 0.32 ng/mL | pseudovirus neutralization, ng/mL (quantity not given) [6]: 0.26 ng/mL

B7: R2D6 chimeric bovine-human IgG1 antibody (antibody, V domains shown)
VH: QVQLRESGPSLVKPSQTLSLTCTTSGFSLSSYAVGWVRQAPGKALEWVGDIDYVGNTDYNPALKSRLSITKDNSKSQVSLVVSSVTAEDAATYYCAKYSGAYAYAACNYYGWRCAWESYIDAWGQGLLVTVSS
VL: QAVLNQPSSVSGSLGQRVSITCSGSSSNVGNGYVSWYQLIPGSAPRTLIYGDTSRASGVPDRFSGSRSGNTATLTISSLQAEDEADYFCASAEDSSSNAVFGSGTTLTVL
EC50 [7]: 0.57 nM | EC50 [11]: 0.41 nM

B8: SKM ultralong CDR3 chimeric bovine-human IgG1 antibody (antibody)
VH: QVQLRESGPSLVKPSQTLSLTCTASGFSLSDKAVGWVRQAPGKALEWLGSIDTGGNTGYNPGLKSRLSITKDNSKSQVSLSVSSVTTEDSATYYCTTVHQETLRSCPDGYIDNSGCTADWGCAALDCWRRRFGYHSTDPSHYTGATYIYTYSLHIDAWGQGLLVTVSS
VL: QAVLNQPSSVSGSLGQRVSITCSGSSSNVGNGYVSWYQLIPGSAPRTLIYGDTSRASGVPDRFSGSRSGNTATLTISSLQAEDEADYFCASAEDSSSNAVFGSGTTLTVL
pseudovirus luciferase assay EC50 [8]: > 1 nM | pseudovirus luciferase assay EC50 [9]: > 1 nM | pseudovirus neutralization, ng/mL (quantity not given) [10]: > 1000 ng/mL

B9: R2F12 ultralong CDR3 chimeric bovine-human IgG1 antibody (antibody)
VH: QVQLRESGPSLVKPSQTLSLTCTVSGFSLSDKAVGWVRRAPGKALEWLGSIDTGGMTGYNPGLKSRLSITKDNSKSQVSLSVNSVTTEDSATYYCATVDQKTKNACPDDFDYRCSCIGGCGCARKGCVGPLCCRSDLGGYLTDSPAYIYEWYIDLWGQGLLVTVSS
VL: QAVLNQPSSVSGSLGQRVSITCSGSSSNVGNGYVSWYQLIPGSAPRTLIYGDTSRASGVPDRFSGSRSGNTATLTISSLQAEDEADYFCASAEDSSSNAVFGSGTTLTVL
EC50 (read off the curve) [1]: ~0.02 nM | EC50 (read off the curve) [2]: ~0.03 nM | EC50 (read off the curve) [3]: ~0.3 nM | EC50 (read off the curve) [4]: ~0.2 nM | EC50 [7]: 0.085 nM | EC50 [11]: 0.05 nM

B10: R4C1 ultralong CDR3 chimeric bovine-human IgG1 antibody (antibody)
VH: QVQLRESGPSLVKPSQTLSLTCTASGFSLSDKAVGWVRQAPGKPLEWLGSIDTAENTGYNPGLKSRLSITKDNSKSQVSLSVSSVTTEDSATYYCATVHQKTRKEKNCPDGYIYSSNTASGYDCGVWICRRVGSAFCSRTGDYTSPSEFDIYEFYVEGWGQGLLVTVSS
VL: QAVLNQPSSVSGSLGQRVSITCSGSSSNVGNGYVSWYQLIPGSAPRTLIYGDTSRASGVPDRFSGSRSGNTATLTISSLQAEDEADYFCASAEDSSSNAVFGSGTTLTVL
pseudovirus neutralization, ng/mL (quantity not given) [10]: 375 ng/mL | pseudovirus neutralization, ng/mL (quantity not given) [6]: 99.9 ng/mL

B11: RBD C6 chimeric bovine-human IgG1 antibody (antibody, V domains shown)
VH: QVQLRESGPSLVKPSQTLSLTCTVSGFSLSSNGVVWVRQAPGRPLEWLGDICSNGGTSFNPALKSRLSIAKDNSESQVSLTVRSVTPEDTATYYCARSRGYDCYAYVYALDTVDAWGQGLLVTVSS
VL: QAVLNQPSSVSGSLGQRVSITCSGSSSNVGNGYVSWYQLIPGSAPRTLIYGDTSRASGVPDRFSGSRSGNTATLTISSLQAEDEADYFCASAEDSSSNAVFGSGTTLTVL
EC50 [7]: 0.03 nM | EC50 [11]: 0.03 nM

B12: SR3A3 ultralong CDR3 chimeric bovine-human IgG1 antibody (antibody)
VH: QVQLRESGPSLVKPSQTLSLTCTISGFSLSSYAVLWVRQAPGKPLEWLGSIDTAENTGYNPGLKSRLSITKDNSKSQVSLSVSSVTTEDSATYYCATVHQKTRKEKNCPDGYIYSSNITSGFDCGVWICRRVGSAFCSRTGDYTSPTELDIYEFYVEGWGQGVPVTVSS
VL: QAVLNQPSSVSGSLGQRVSITCSGSSSNVGNGYVSWYQLIPGSAPRTLIYGDTSRASGVPDRFSGSRSGNTATLTISSLQAEDEADYFCASAEDSSSNAVFGSGTTLTVL
binding result [7]: binds | EC50 [11]: 0.037 nM

B13: RBD A2 chimeric bovine-human IgG1 antibody (antibody, V domains shown)
VH: QVQLRESGPSLVKPLQILSLTCTVSGFSLSSNGVVWVRQAPGKALEWLGDICSTGGTSFNPALKSRLSIAKDNSKSQVSLSVRSVTPEDTATYYCARSRGYDCYANVDALDYVDAWGQGLLVTVSS
VL: QAVLNQPSSVSGSLGQRVSITCSGSSSNVGNGYVSWYQLIPGSAPRTLIYGDTSRASGVPDRFSGSRSGNTATLTISSLQAEDEADYFCASAEDSSSNAVFGSGTTLTVL
EC50 [7]: 0.03 nM | EC50 [11]: 0.024 nM
